Experimental data: article PMC11645210 (Cell, 2024)

Experiments:
Assay in all cases: SPR
Conditions in all cases: both partners purified
SARS-CoV-1 Urbani RBD = biological target: T1, SARS-CoV-1 Urbani RBD (SARS-CoV-1 Urbani)
T1 construct: source: Expi293F, purified (cobalt IMAC, SEC)

[1] = biological target: T2, SARS-CoV-2 Wuhan-Hu-1 RBD (SARS-CoV-2, UniProt P0DTC2)
T2 construct: source: Expi293F, purified (cobalt IMAC, SEC)

WIV1 RBD = biological target: T3, WIV1 RBD (Bat SARS-like coronavirus WIV1)
T3 construct: source: Expi293F, purified (cobalt IMAC, SEC)

SARS-CoV-1 (Urbani) RBD = biological target: T4, SARS-CoV-1 (Urbani) RBD (SARS-CoV-1 Urbani)
T4 construct: source: Expi293F, purified (cobalt IMAC, SEC)

B1: VIR-7229 Fab (obtained by fragmentation of the IgG) (Fab, V domains shown)
VH: EVQLVESGGSVVQPGRALRLSCAASGITFSSFGMYWVRQAPGKGLEWLGYIAYDGSDTYYADSVKGRFTISRDNSKNTLYLQMNSLRIEDTAVYYCAKDYYPLLSYYYGLDVWGQGTTVTVSS
VL: QSVLTQPRSVSGSPGQSVTISCTGTSSDVGAYNYVSWYQQHPGKAPKFMIYDVDQRPSGVPDRFSGSKSGNTASLIISGLQAEDEADYYCSSYAGSYIWVFGGGTQLTVL
- binding result (SARS-CoV-1 Urbani RBD): binds

B2: VIR-7229 Fab fragment (Fab, V domains shown)
VH: EVQLVESGGSVVQPGRALRLSCAASGITFSSFGMYWVRQAPGKGLEWLGYIAYDGSDTYYADSVKGRFTISRDNSKNTLYLQMNSLRIEDTAVYYCAKDYYPLLSYYYGLDVWGQGTTVTVSS
VL: QSVLTQPRSVSGSPGQSVTISCTGTSSDVGAYNYVSWYQQHPGKAPKFMIYDVDQRPSGVPDRFSGSKSGNTASLIISGLQAEDEADYYCSSYAGSYIWVFGGGTQLTVL
notes: source: ExpiCHO (IgG1); Fab by fragmentation of the IgG with the FabLACTICA Fab kit
- Kd [1]: 0.185 nM
- koff [1]: 3.67e-05 s⁻¹
- kon [1]: 199000 M⁻¹ s⁻¹
- Kd (WIV1 RBD): 7.85 nM
- koff (WIV1 RBD): 0.00304 s⁻¹
- kon (WIV1 RBD): 387000 M⁻¹ s⁻¹
- Kd (SARS-CoV-1 (Urbani) RBD): 2.46 nM
- koff (SARS-CoV-1 (Urbani) RBD): 0.000912 s⁻¹
- kon (SARS-CoV-1 (Urbani) RBD): 375000 M⁻¹ s⁻¹
